The values that follow are results of earlier work, collected in patent US20060160174A1, “Modified l49-sfv exhibiting increased stability and methods of use thereof” (priority 2002, published 2006).

The conditions of data set [1]: cited from earlier work.
A further data set deals with T1, p97 (Homo sapiens, UniProt P08582).
T1 sequence (P08582 20-709): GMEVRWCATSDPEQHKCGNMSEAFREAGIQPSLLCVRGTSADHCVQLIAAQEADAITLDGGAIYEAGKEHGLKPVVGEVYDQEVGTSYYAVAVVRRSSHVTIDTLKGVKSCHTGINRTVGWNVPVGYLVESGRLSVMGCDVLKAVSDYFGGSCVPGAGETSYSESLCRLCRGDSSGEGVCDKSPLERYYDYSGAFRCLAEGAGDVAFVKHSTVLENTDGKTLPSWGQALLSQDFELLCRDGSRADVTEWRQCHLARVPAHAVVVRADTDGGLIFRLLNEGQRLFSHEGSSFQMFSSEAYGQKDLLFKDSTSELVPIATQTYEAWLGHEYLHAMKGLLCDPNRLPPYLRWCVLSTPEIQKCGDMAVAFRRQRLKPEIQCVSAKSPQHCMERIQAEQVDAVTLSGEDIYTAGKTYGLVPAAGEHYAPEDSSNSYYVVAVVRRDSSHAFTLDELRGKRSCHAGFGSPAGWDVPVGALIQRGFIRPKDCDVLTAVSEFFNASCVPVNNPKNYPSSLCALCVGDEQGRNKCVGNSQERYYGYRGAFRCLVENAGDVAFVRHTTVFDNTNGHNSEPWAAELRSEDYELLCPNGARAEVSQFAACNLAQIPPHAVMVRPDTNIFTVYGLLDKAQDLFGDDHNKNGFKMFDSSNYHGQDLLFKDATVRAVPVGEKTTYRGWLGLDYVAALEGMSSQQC
The note with it: parental molecule expressed in the E. coli periplasm; cited from earlier work.

B1: L49-sFv-bL: parental L49 single-chain Fv fused to Enterobacter cloacae β-lactamase, solubly expressed in the E. coli periplasm (Siemers et al., 1997) (protein)
scFv: MEVQLQESGPSLVKPSQTLSLTCSVTGDSITSGYWNWIRKFPGNKLEYMGYISDSGITYYNPSLKSRISITRDTSKNQYYLQLNFVTAEDTATYNCARRTLATYYAMDYWGQGTSVTVSSGSTSGSGKPGSGEGSTKGDFVMTQTPLSLPVSLGDQASISCRASQSLVHSNGNTYLHWYLQKPGQSPKLLIYRVSNRFSGVPDRFSGSGSGTDFTLKISRVEAEDLGVYFCSQSTHVPPTFGGGTKLEIKRTPVSEKQLAEVVANTITPLMKAQSVPGMAVAVIYQGKPHYYTFGKADIAANKPVTPQTLFELGSISKTFTGVLGGDAIARGEISLDDAVTRYWPQLTGKQWQGIRMLDLATYTAGGLPLQVPDEVTDNASLLRFYQNWQPQWKPGTTRLYANASIGLFGALAVKPSGMPYEQAMTTRVLKPLKLDHTWINVPKAEEAHYAWGYRDGKAVRVSPGMLDAQAYGVKTNVQDMANWVMANMAPENVADASLKQGIALAQSRYWRIGSMYQGLGWEMLNWPVEANTVVETSFGNVALAPLPVAEVNPPAPPVKASWVHKTGSTGGFGSYVAFIPEKQIGIVMLANTSYPNPARVEAAYHILEALQ
Usually Kd stands for the equilibrium constant for the complex coming apart. Turning to B1, the “tumor to blood ratio” value in data set [1] (24-48 hours after the fusion protein was administered) was 141-150 :1. In data set [1] (clearance from systemic circulation), the “terminal half-life t1/2β” value was 2.5 h. In addition, the Kd in the data set with p97 was 1 nM.
